Test results as given in the supplement of paper PMC11246515.
± gives the standard deviation of the averaged measurements.

Assay: total protein half-life in vivo (active degradation + dilution); higher = more stable protein
[1] = E. coli NCM3722 delta-clpP delta-lon delta-hslV, growth: N-lim chemostat, doubling time 6 h
[2] = E. coli NCM3722 delta-clpP, growth: N-lim chemostat, doubling time 6 h
[3] = E. coli NCM3722 delta-hslV, growth: N-lim chemostat, doubling time 6 h
[4] = E. coli NCM3722 delta-lon, growth: N-lim chemostat, doubling time 6 h
[5] = E. coli NCM3722 delta-smpB, growth: N-lim chemostat, doubling time 6 h
[6] = wild type E. coli NCM3722, growth: C-lim chemostat, doubling time 3 h
[7] = wild type E. coli NCM3722, growth: C-lim chemostat, doubling time 6 h
[8] = wild type E. coli NCM3722, growth: C-lim chemostat, doubling time 12 h
[9] = wild type E. coli NCM3722, growth: N-lim chemostat, doubling time 6 h
[10] = wild type E. coli NCM3722, growth: N-lim chemostat, doubling time 12 h
[11] = wild type E. coli NCM3722, growth: P-lim chemostat, doubling time 6 h
[12] = wild type E. coli NCM3722, growth: P-lim chemostat, doubling time 12 h

Sequence	total protein half-life in vivo [1] [h]	total protein half-life in vivo [2] [h]	total protein half-life in vivo [3] [h]	total protein half-life in vivo [4] [h]	total protein half-life in vivo [5] [h]	total protein half-life in vivo [6] [h]	total protein half-life in vivo [7] [h]	total protein half-life in vivo [8] [h]	total protein half-life in vivo [9] [h]	total protein half-life in vivo [10] [h]	total protein half-life in vivo [11] [h]	total protein half-life in vivo [12] [h]
MKIIILGAGQVGGTLAENLVGENNDITVVDTNGERLRTLQDKFDLRVVQGHGSHPRVLREAGADDADMLVAVTSSDETNMVACQVAYSLFNTPNRIARIRSPDYVRDADKLFHSDAVPIDHLIAPEQLVIDNIYRLIEYPGALQVVNFAEGKVSLAVVKAYYGGPLIGNALSTMREHMPHIDTRVAAIFRHDRPIRPQGSTIVEAGDEVFFIAASQHIRAVMSELQRLEKPYKRIMLVGGGNIGAGLARRLEKDYSVKLIERNQQRAAELAEKLQNTIVFFGDASDQELLAEEHIDQVDLFIAVTNDDEANIMSAMLAKRMGAKKVMVLIQRRAYVDLVQGSVIDIAISPQQATISALLSHVRKADIVGVSSLRRGVAEAIEAVAHGDESTSRVVGRVIDEIKLPPGTIIGAVVRGNDVMIANDNLRIEQGDHVIMFLTDKKFITDVERLFQPSPFFL [P0AGI8]	6.84 ± 1.2	4.97 ± 0.52	5.96 ± 0.17	5.31 ± 0.37	5.41 ± 0.16	3.056 ± 0.029	6.56 ± 0.57	11.5 ± 0.3	5.839 ± 0.044	12 ± 0.56	6.38 ± 0.11	13.2 ± 0.66
MESLSEGTTAGYQQIHDGIIHLVDSARTETVRSVNALMTATYQEIGRRIVEFEQGGEARAAYGAQLIKRLSKDLCLRYKRGFSAKNLRQMRLFYLFFQHVEIHQTMSGELTPLGIPQTPSAEFPSAKIWQTLSAKSFPLPRSTYVRLLSVKNADARSFYEKETLRCGWSVRQLERQIATQFYERTLLSHDKSAMLQQHAPAETHILPQQAIRDPFVLEFLELKDEYSESDFEEALINHLMDFMLELGDDFAFVGRQRRLRIDDNWFRVDLLFFHRRLRCLLIVDLKVGKFSYSDAGQMNMYLNYAKEHWTLPDENPPIGLVLCAEKGAGEAHYALAGLPNTVLASEYKMQLPDEKRLADELVRTQAVLEEGYRRR	–	–	5.34	–	–	–	5.89	–	–	–	–	–
MKRHLNTCYRLVWNHMTGAFVVASELARARGKRGGVAVALSLAAVTSLPVLAADIVVHPGETVNGGTLANHDNQIVFGTTNGMTISTGLEYGPDNEANTGGQWVQDGGTANKTTVTSGGLQRVNPGGSVSDTVISAGGGQSLQGRAVNTTLNGGEQWMHEGAIATGTVINDKGWQVVKPGTVATDTVVNTGAEGGPDAENGDTGQFVRGDAVRTTINKNGRQIVRAEGTANTTVVYAGGDQTVHGHALDTTLNGGYQYVHNGGTASDTVVNSDGWQIVKNGGVAGNTTVNQKGRLQVDAGGTATNVTLKQGGALVTSTAATVTGINRLGAFSVVEGKADNVVLENGGRLDVLTGHTATNTRVDDGGTLDVRNGGTATTVSMGNGGVLLADSGAAVSGTRSDGKAFSIGGGQADALMLEKGSSFTLNAGDTATDTTVNGGLFTARGGTLAGTTTLNNGAILTLSGKTVNNDTLTIREGDALLQGGSLTGNGSVEKSGSGTLTVSNTTLTQKAVNLNEGTLTLNDSTVTTDVIAQRGTALKLTGSTVLNGAIDPTNVTLASGATWNIPDNATVQSVVDDLSHAGQIHFTSTRTGKFVPATLKVKNLNGQNGTISLRVRPDMAQNNADRLVIDGGRATGKTILNLVNAGNSASGLATSGKGIQVVEAINGATTEEGAFVQGNRLQAGAFNYSLNRDSDESWYLRSENAYRAEVPLYASMLTQAMDYDRIVAGSRSHQTGVNGENNSVRLSIQGGHLGHDNNGGIARGATPESSGSYGFVRLEGDLMRTEVAGMSVTAGVYGAAGHSSVDVKDDDGSRAGTVRDDAGSLGGYLNLVHTSSGLWADIVAQGTRHSMKASSDNNDFRARGWGWLGSLETGLPFSITDNLMLEPQLQYTWQGLSLDDGKDNAGYVKFGHGSAQHVRAGFRLGSHNDMTFGEGTSSRAPLRDSAKHSVSELPVNWWVQPSVIRTFSSRGDMRVGTSTAGSGMTFSPSQNGTSLDLQAGLEARVRENITLGVQAGYAHSVSGSSAEGYNGQATLNVTF	5.867 ± 0.045	6.13 ± 0.57	4.9 ± 0.93	5.37 ± 0.085	5.53 ± 0.46	3.05 ± 0.062	4.43 ± 1.3	4.46 ± 0.86	5.92 ± 0.28	9.16 ± 2	5.77 ± 0.94	11.9 ± 0.57
MVDQVKVVADDQAPAEQSLRRNLTNRHIQLIAIGGAIGTGLFMGSGKTISLAGPSIIFVYMIIGFMLFFVMRAMGELLLSNLEYKSFSDFASDLLGPWAGYFTGWTYWFCWVVTGMADVVAITAYAQFWFPDLSDWVASLAVIVLLLTLNLATVKMFGEMEFWFAMIKIVAIVSLIVVGLVMVAMHFQSPTGVEASFAHLWNDGGWFPKGLSGFFAGFQIAVFAFVGIELVGTTAAETKDPEKSLPRAINSIPIRIIMFYVFALIVIMSVTPWSSVVPEKSPFVELFVLVGLPAAASVINFVVLTSAASSANSGVFSTSRMLFGLAQEGVAPKAFAKLSKRAVPAKGLTFSCICLLGGVVMLYVNPSVIGAFTMITTVSAILFMFVWTIILCSYLVYRKQRPHLHEKSIYKMPLGKLMCWVCMAFFVFVVVLLTLEDDTRQALLVTPLWFIALGLGWLFIGKKRAAELRK [P0AAE0]	4.28 ± 0.25	3.4 ± 0.0052	3.26 ± 0.38	2.95 ± 0.22	3.33 ± 0.25	3.28 ± 0.5	–	8.36 ± 0.32	3.26 ± 0.58	5 ± 0.22	4.74 ± 0.37	6.57 ± 0.66
MSLHSPGKAFRAALTKENPLQIVGTINANHALLAQRAGYQAIYLSGGGVAAGSLGLPDLGISTLDDVLTDIRRITDVCSLPLLVDADIGFGSSAFNVARTVKSMIKAGAAGLHIEDQVGAKRCGHRPNKAIVSKEEMVDRIRAAVDAKTDPDFVIMARTDALAVEGLDAAIERAQAYVEAGAEMLFPEAITELAMYRQFADAVQVPILANITEFGATPLFTTDELRSAHVAMALYPLSAFRAMNRAAEHVYNVLRQEGTQKSVIDTMQTRNELYESINYYQYEEKLDNLFARSQVK	3.59 ± 0.66	–	–	–	–	–	4.13 ± 0.31	5.82 ± 0.58	4.7	–	–	–
MRAKLLGIVLTTPIAISSFASTETLSFTPDNINADISLGTLSGKTKERVYLAEEGGRKVSQLDWKFNNAAIIKGAINWDLMPQISIGAAGWTTLGSRGGNMVDQDWMDSSNPGTWTDESRHPDTQLNYANEFDLNIKGWLLNEPNYRLGLMAGYQESRYSFTARGGSYIYSSEEGFRDDIGSFPNGERAIGYKQRFKMPYIGLTGSYRYEDFELGGTFKYSGWVESSDNDEHYDPGKRITYRSKVKDQNYYSVAVNAGYYVTPNAKVYVEGAWNRVTNKKGNTSLYDHNNNTSDYSKNGAGIENYNFITTAGLKYTF	–	6.57 ± 0.46	6.305 ± 0.013	6.712 ± 0.042	5.81 ± 0.35	3.21 ± 0.091	6.17 ± 0.45	11.5 ± 0.18	6.05 ± 0.22	12.2 ± 2.6	6.51 ± 0.55	13.498 ± 0.0072
MPIQVLPPQLANQIAAGEVVERPASVVKELVENSLDAGATRIDIDIERGGAKLIRIRDNGCGIKKDELALALARHATSKIASLDDLEAIISLGFRGEALASISSVSRLTLTSRTAEQQEAWQAYAEGRDMNVTVKPAAHPVGTTLEVLDLFYNTPARRKFLRTEKTEFNHIDEIIRRIALARFDVTINLSHNGKIVRQYRAVPEGGQKERRLGAICGTAFLEQALAIEWQHGDLTLRGWVADPNHTTPALAEIQYCYVNGRMMRDRLINHAIRQACEDKLGADQQPAFVLYLEIDPHQVDVNVHPAKHEVRFHQSRLVHDFIYQGVLSVLQQQLETPLPLDDEPQPAPRSIPENRVAAGRNHFAEPAAREPVAPRYTPAPASGSRPAAPWPNAQPGYQKQQGEVYRQLLQTPAPMQKLKAPEPQEPALAANSQSFGRVLTIVHSDCALLERDGNISLLSLPVAERWLRQAQLTPGEAPVCAQPLLIPLRLKVSAEEKSALEKAQSALAELGIDFQSDAQHVTIRAVPLPLRQQNLQILIPELIGYLAKQSVFEPGNIAQWIARNLMSEHAQWSMAQAITLLADVERLCPQLVKTPPGGLLQSVDLHPAIKALKDE	5.64 ± 0.16	5.376 ± 0.017	4.58 ± 0.16	5.29 ± 0.063	4.59 ± 0.048	3.002 ± 0.009	5.614 ± 0.0069	9.34 ± 0.55	4.635 ± 0.043	8.197 ± 0.054	5.43 ± 0.11	10.2 ± 0.69
MSNLSLDFSDNTFQPLAARMRPENLAQYIGQQHLLAAGKPLPRAIEAGHLHSMILWGPPGTGKTTLAEVIARYANADVERISAVTSGVKEIREAIERARQNRNAGRRTILFVDEVHRFNKSQQDAFLPHIEDGTITFIGATTENPSFELNSALLSRARVYLLKSLSTEDIEQVLTQAMEDKTRGYGGQDIVLPDETRRAIAELVNGDARRALNTLEMMADMAEVDDSGKRVLKPELLTEIAGERSARFDNKGDRFYDLISALHKSVRGSAPDAALYWYARIITAGGDPLYVARRCLAIASEDVGNADPRAMQVAIAAWDCFTRVGPAEGERAIAQAIVYLACAPKSNAVYTAFKAALADARERPDYDVPVHLRNAPTKLMKEMGYGQEYRYAHDEANAYAAGEVYFPPEIAQTRYYFPTNRGLEGKIGEKLAWLAEQDQNSPIKRYR [P0AAZ4]	5.65 ± 0.3	4.56 ± 0.49	4.91 ± 1.5	4.562 ± 0.028	3.65 ± 0.14	3.02 ± 0.14	5.39 ± 0.29	9.37 ± 0.81	3.82 ± 0.099	5.11 ± 0.23	5.07 ± 0.082	9.954 ± 0.019
MKRVSQMTALAMALGLACASSWAAELAKPLTLDQLQQQNGKAIDTRPSAFYNGWPQTLNGPSGHELAALNLSASWLDKMSTEQLNAWIKQHNLKTDAPVALYGNDKDVDAVKTRLQKAGLTHISILSDALSEPSRLQKLPHFEQLVYPQWLHDLQQGKEVTAKPAGDWKVIEAAWGAPKLYLISHIPGADYIDTNEVESEPLWNKVSDEQLKAMLAKHGIRHDTTVILYGRDVYAAARVAQIMLYAGVKDVRLLDGGWQTWSDAGLPVERGTPPKVKAEPDFGVKIPAQPQLMLDMEQARGLLHRQDASLVSIRSWPEFIGTTSGYSYIKPKGEIAGARWGHAGSDSTHMEDFHNPDGTMRSADDITAMWKAWNIKPEQQVSFYCGTGWRASETFMYARAMGWKNVSVYDGGWYEWSSDPKNPVATGERGPDSSK	5.98 ± 1.8	6.55 ± 1.7	6.79 ± 0.81	6.48 ± 0.13	6.47 ± 0.44	3.2 ± 0.56	6.183 ± 0.011	12.3 ± 0.77	6.69 ± 1.1	13 ± 1.9	6.19 ± 0.064	14.4 ± 0.58
MKTVVFAYHDMGCLGIEALLAAGYEISAIFTHTDNPGEKAFYGSVARLAAERGIPVYAPDNVNHPLWVERIAQLSPDVIFSFYYRHLIYDEILQLAPAGAFNLHGSLLPKYRGRAPLNWVLVNGETETGVTLHRMVKRADAGAIVAQLRIAIAPDDIAITLHHKLCHAARQLLEQTLPAIKHGNILEIAQRENEATCFGRRTPDDSFLEWHKPASVLHNMVRAVADPWPGAFSYVGNQKFTVWSSRVHPHASKAQPGSVISVAPLLIACGDGALEIVTGQAGDGITMQGSQLAQTLGLVQGSRLNSQPACTARRRTRVLILGVNGFIGNHLTERLLREDHYEVYGLDIGSDAISRFLNHPHFHFVEGDISIHSEWIEYHVKKCDVVLPLVAIATPIEYTRNPLRVFELDFEENLRIIRYCVKYRKRIIFPSTSEVYGMCSDKYFDEDHSNLIVGPVNKPRWIYSVSKQLLDRVIWAYGEKEGLQFTLFRPFNWMGPRLDNLNAARIGSSRAITQLILNLVEGSPIKLIDGGKQKRCFTDIRDGIEALYRIIENAGNRCDGEIINIGNPENEASIEELGEMLLASFEKHPLRHHFPPFAGFRVVESSSYYGKGYQDVEHRKPSIRNAHRCLDWEPKIDMQETIDETLDFFLRTVDLTDKPS	5.15 ± 0.03	3.11 ± 0.24	2.84 ± 0.19	3.86 ± 0.1	3.13 ± 0.3	–	4.8816 ± 0.00064	10.4 ± 1.2	2.93 ± 0.43	4.61 ± 0.62	5.82 ± 0.22	11.65 ± 0.019
MSYSNILVAVAVTPESQQLLAKAVSIARPVKGHISLITLASDPEMYNQLAAPMLEDLRSVMHEETQSFLDKLIQDAGYPVDKTFIAYGELSEHILEVCHKHHFDLVICGNHNHSFFSRASCSAKRVIASSEVDVLLVPLTGD	4.56 ± 0.81	3.97	4.06	4.66 ± 0.43	3.93 ± 0.25	3.26 ± 0.33	3.71	9.83 ± 3.1	4.07	6.65	5.2	11.8 ± 1.2
